Publication PMC3697849

Target: trypsin-digested STING c-di-GMP binding domain (CBD) (human) (UniProt Q86WV6)
Test: SEC

stoichiometry N: 2
Substance: trypsin-digested STING c-di-GMP binding domain (CBD) (from UniProt Q86WV6 139-379) (domain or fragment)
